# Measurements published in PMC10694151, “Regulation of the cell division hydrolase RipC by the FtsEX system in Mycobacterium tuberculosis” (Nature Communications, 2023).
# B1: FtsE (Rv3102c) of Mycobacterium tuberculosis (natural protein)
# chain: MMITLDHVTKQYKSSARPALDDINVKIDKGEFVFLIGPSGSGKSTFMRLLLAAETPTSGDVRVSKFHVNKLRGRHVPKLRQVIGCVFQDFRLLQQKTVYDNVAFALEVIGKRTDAINRVVPEVLETVGLSGKANRLPDELSGGEQQRVAIARAFVNRPLVLLADEPTGNLDPETSRDIMDLLERINRTGTTVLMATHDHHIVDSMRQRVVELSLGRLVRDEQRGVYGMDR
# notes: also called MtbFtsE; NBD
# B2: FtsX (Rv3101c) of Mycobacterium tuberculosis (natural protein)
# chain: MRFGFLLNEVLTGFRRNVTMTIAMILTTAISVGLFGGGMLVVRLADSSRAIYLDRVESQVFLTEDVSANDSSCDTTACKALREKIETRSDVKAVRFLNRQQAYDDAIRKFPQFKDVAGKDSFPASFIVKLENPEQHKDFDTAMKGQPGVLDVLNQKELIDRLFAVLDGLSNAAFAVALVQAIGAILLIANMVQVAAYTRRTEIGIMRLVGASRWYTQLPFLVEAMLAATMGVGIAVAGLMVVRALFLENALNQFYQANLIAKVDYADILFITPWLLLLGVAMSGLTAYLTLRLYVRR
# notes: also called MtbFtsX
# Columns and labels:
# [1] = target: T1, MtbFtsEX/RipC (Mycobacterium tuberculosis, UniProt O05779)
# T1 construct: gene ftsE
# T1 sequence (P9WHU3 34-385, one chain of several, further chain): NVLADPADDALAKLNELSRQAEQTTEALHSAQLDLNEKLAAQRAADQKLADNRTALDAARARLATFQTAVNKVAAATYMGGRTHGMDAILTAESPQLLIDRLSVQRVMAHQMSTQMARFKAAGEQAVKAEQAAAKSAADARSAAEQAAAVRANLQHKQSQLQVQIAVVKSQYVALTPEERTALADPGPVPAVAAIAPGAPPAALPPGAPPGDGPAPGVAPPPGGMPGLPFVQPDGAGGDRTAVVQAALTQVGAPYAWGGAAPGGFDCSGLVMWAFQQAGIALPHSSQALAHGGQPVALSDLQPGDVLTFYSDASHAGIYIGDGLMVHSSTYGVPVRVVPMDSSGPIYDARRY
# [2] = target: B2; experiment: cryo-EM structure; FtsEX or FtsEX-RipC in peptidiscs, 3 mg/ml, ATP-free; settings: both partners purified
# [3] = target: the molecule itself; experiment: as above
molecule,measurement,setting,value
Nc1ncnc2c1ncn2[C@@H]1O[C@H](COP(=O)(O)OP(=O)(O)O)[C@@H](O)[C@H]1O [ADP],"cryo-EM structure, 5.7 Å, polyalanine model",[1],with EM density compatible with an ADP molecule
B1,binding result,[2],binds
B2,stoichiometry N,[3],2
